Results taken from patent US20120171122A1 (published 2012).
No end group written: not given here. *: point of attachment. Biotin = O=C1N[C@H]2[C@H](CS[C@H]2CCCCC(=O)*)N1

Target: T1, N-terminally biotinylated peptide HRRSARYLDTVL
T1 construct: Captured through its biotin on streptavidin coated onto the ELISA wells; also called ligand of NHERF PDZ1 mutant H9
T1 peptide: Biotin-HRRSARYLDTVL
Test: ELISA; serial dilutions of GST-PDZ fusion on biotinylated peptide captured on streptavidin-coated wells; anti-His HRP detection
Description: The GST-PDZ fusion protein expressed by clone H2 was partially characterized. The DNA of clone H2 was transformed into E. coli strain BL21 [DE3] and the resulting transformant induced in 1 mL culture volume using 0.1 mM IPTG for 2.5 hours at 30° C. with shaking at 300 rpm. The cells were harvested from the culture medium and lysed using BugBuster (Novagen). Batch affinity purification was carried out using 50 μl of glutathione affinity resin (Novagen), eluting the bound protein in reduced glutathione elution buffer. […] The eluted protein was tested by ELISA for binding to N-terminally biotinylated peptide […] (SEQ ID NO: 14) bound to 0.1 μg of streptavidin coated onto each well of an ELISA plate. Serial dilutions of the protein were added to wells in which the peptide was present or absent (negative controls) and immuno-detection of a C-terminal hexahistidine tag provided by the modified pGEX-2TK vector was carried out using a horseradish peroxidase-conjugated antibody (Roche).

binding result: binds
B1: GST-PDZ fusion protein expressed by clone H2 (NHERF PDZ1 loop-variant H2, CHPQFC inserted in loop β23 of NHERF PDZ1 mutant H9) (designed binder, not shown: a dimerising Fc or GST; large carriers; small tags and cut ends)
chain: LPRLCCLEKGPNGYGFHLHGEKGCHPQFCKVGQYIGLVVPGSPAEKAGLLAGDRLVEVNGENVEKETHQQVVSRIRAALNAVCLLVVDPE
notes: Partially purified on glutathione resin from induced E. coli BL21[DE3]; also called PDZ loop-variant H2; NHERF PDZ loop-variant H2
